Reference: publication PMC12329599, “Acetylation of microtubule-binding PinX1 orchestrates ribosome biogenesis to nutrient starvation via the RNA polymerase I preinitiation complex” (The Journal of Biological Chemistry, 2025)

B1: GST-PinX1 full-length (natural protein, human, UniProt Q96BK5 1-328, looked up)
chain: MSMLAERRRKQKWAVDPQNTAWSNDDSKFGQRMLEKMGWSKGKGLGAQEQGATDHIKVQVKNNHLGLGATINNEDNWIAHQDDFNQLLAELNTCHGQETTDSSDKKEKKSFSLEEKSKISKNRVHYMKFTKGKDLSSRSKTDLDCIFGKRQSKKTPEGDASPSTPEENETTTTSAFTIQEYFAKRMAALKNKPQVPVPGSDISETQVERKRGKKRNKEATGKDVESYLQPKAKRHTEGKPERAEAQERVAKKKSAPAEEQLRGPCWDQSSKASAQDAGDHVQPPEGRDFTLKPKKRRGKKKLQKPVEIAEDATLEETLVKKKKKKDSK
notes: PinX1, human, full length, cloned into pGEX-4T-3; also called GST-PinX1 FL; full length GST-PinX1; source: TSsetta (DE3) bacteria, IPTG-induced, purified (Glutathione-Sepharose 4B)
B2: GST-PinX1 central section (aa 70–253) (domain or fragment, human, UniProt Q96BK5 70-253, looked up)
chain: TINNEDNWIAHQDDFNQLLAELNTCHGQETTDSSDKKEKKSFSLEEKSKISKNRVHYMKFTKGKDLSSRSKTDLDCIFGKRQSKKTPEGDASPSTPEENETTTTSAFTIQEYFAKRMAALKNKPQVPVPGSDISETQVERKRGKKRNKEATGKDVESYLQPKAKRHTEGKPERAEAQERVAKKK
notes: the truncations were of GST-PinX1; also called GST-PinX1 truncation; source: TSsetta (DE3) bacteria, IPTG-induced, purified (Glutathione-Sepharose 4B)

Target: T1, Strep2-POLR1G (human, UniProt O15446 1-510)
T1 construct: POLR1G (RNA polymerase I subunit G), human, cloned into pET45a-Strep2; also called Strep2-tagged POLR1G; source: TSsetta (DE3) bacteria, purified (anti-Strep2 tag agarose beads)
T1 sequence (O15446 whole entry): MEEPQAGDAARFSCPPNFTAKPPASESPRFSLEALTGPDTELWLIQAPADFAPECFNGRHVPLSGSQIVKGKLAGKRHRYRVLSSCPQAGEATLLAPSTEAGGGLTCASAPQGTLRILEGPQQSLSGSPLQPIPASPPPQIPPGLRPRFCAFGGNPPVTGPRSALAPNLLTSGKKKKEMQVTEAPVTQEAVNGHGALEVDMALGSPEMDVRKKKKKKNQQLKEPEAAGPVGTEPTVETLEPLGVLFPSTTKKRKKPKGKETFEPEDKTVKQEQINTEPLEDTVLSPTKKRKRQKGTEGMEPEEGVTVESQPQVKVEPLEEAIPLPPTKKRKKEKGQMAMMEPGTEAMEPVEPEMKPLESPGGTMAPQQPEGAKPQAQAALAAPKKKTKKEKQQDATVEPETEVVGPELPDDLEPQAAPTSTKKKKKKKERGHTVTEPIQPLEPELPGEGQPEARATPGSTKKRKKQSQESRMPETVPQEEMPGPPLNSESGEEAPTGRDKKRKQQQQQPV
Experiment: pull-down; GST-PinX1 proteins on glutathione beads incubated with purified Strep2- or HA-tagged proteins in BC200 buffer (200 mM NaCl, 20 mM Tris-HCl pH 7.9, 20% glycerol, 0.2% NP-40) at 4 °C overnight; washed with BC500, BC200 or BC100; Western blot
Settings: both partners purified

| Binder | binding result |
| --- | --- |
| B1 | binds |
| B2 | binds |
